Measured values from PMC3553564.

Assays:
Assay in all cases: fluorescence polarization
[1] = biological target: PWI R769A+R770A (Homo sapiens, UniProt P49756 734-843, R769A;R770A)
[2] = biological target: PWI K837A+K838A (Homo sapiens, UniProt P49756 734-843, K837A;K838A)
[3] = biological target: PWI H737A+K739A (Homo sapiens, UniProt P49756 734-843, H737A;K739A)
[4] = biological target: PWI K744A (Homo sapiens, UniProt P49756 734-843, K744A)
[5] = biological target: PWI K734A+R735A+K736A (Homo sapiens, UniProt P49756 734-843, K734A;R735A;K736A)
[6] = biological target: RBM25 PWI domain + flanking basic region WT (Homo sapiens, UniProt P49756 734-843)
[7] = biological target: PWI K825A+R828A (Homo sapiens, UniProt P49756 734-843, K825A;R828A)
[8] = biological target: PWI ΔHb (Homo sapiens, UniProt P49756 746-843, del734-745)
[9] = biological target: PWI K777A+K778A (Homo sapiens, UniProt P49756 734-843, K777A;K778A)
Chain of PWI K777A+K778A (P49756 734-843 K777A/K778A): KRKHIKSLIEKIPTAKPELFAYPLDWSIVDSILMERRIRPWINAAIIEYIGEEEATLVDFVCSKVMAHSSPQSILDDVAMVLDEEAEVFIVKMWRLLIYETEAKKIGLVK

Chain of RBM25 PWI domain + flanking basic region WT (P49756 734-843): as the sequence (P49756 734-843 K777A/K778A) above, with A44K, A45K counted along it
Chain of PWI K837A+K838A (P49756 734-843 K837A/K838A): as the sequence (P49756 734-843 K777A/K778A) above, with A44K, A45K, K104A, K105A counted along it
Chain of PWI H737A+K739A (P49756 734-843 H737A/K739A): as the sequence (P49756 734-843 K777A/K778A) above, with H4A, K6A, A44K, A45K counted along it
Chain of PWI K734A+R735A+K736A (P49756 734-843 K734A/R735A/K736A): as the sequence (P49756 734-843 K777A/K778A) above, with K1A, R2A, K3A, A44K, A45K counted along it
Chain of PWI K744A (P49756 734-843 K744A): as the sequence (P49756 734-843 K777A/K778A) above, with K11A, A44K, A45K counted along it
Chain of PWI K825A+R828A (P49756 734-843 K825A/R828A): as the sequence (P49756 734-843 K777A/K778A) above, with A44K, A45K, K92A, R95A counted along it
Chain of PWI R769A+R770A (P49756 734-843 R769A/R770A): as the sequence (P49756 734-843 K777A/K778A) above, with R36A, R37A, A44K, A45K counted along it
Chain of PWI ΔHb (P49756 746-843, stated change not applied): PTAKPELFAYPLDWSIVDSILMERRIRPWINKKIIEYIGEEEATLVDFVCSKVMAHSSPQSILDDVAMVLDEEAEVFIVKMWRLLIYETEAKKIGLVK

AUCGGGCA (ssRNA) [ssRNA]
Kd [1]: 32.1 ± 1.4 µM | Kd [2]: 15.7 ± 2.1 µM | Kd [3]: 61.6 ± 9.3 µM | Kd [4]: 19.9 ± 4.4 µM | Kd [5]: 183 ± 44.7 µM | Kd [6]: 11.3 ± 1 µM | Kd [7]: 106 ± 17.3 µM | binding result [8]: no binding | Kd [9]: 156 ± 29.4 µM

B1: dsRNA (dsRNA)
RNA 1: AUCGGGCA
RNA 2: UGCCCGAU
Kd [6]: ~8.2 µM

B2: dsDNA (dsDNA)
DNA 1: CCTTACAGCAAA
DNA 2: TTTGCTGTAAGG
Kd [1]: ~46 µM | Kd [2]: ~40.4 µM | Kd [3]: ~57 µM | Kd [4]: ~23.6 µM | Kd [5]: ~194 µM | Kd [6]: ~6.7 µM | Kd [7]: ~106 µM | binding result [8]: no binding | Kd [9]: ~160 µM

CCTTACAGCAAA (ssDNA) [ssDNA]
Kd [6]: ~4.4 µM
